Measured values reported in publication PMC9704045, “Qualification of a Biolayer Interferometry Assay to Support AZD7442 Resistance Monitoring” (Microbiology Spectrum, 2022).

Target: T1, wild-type HexaPro (D614) SARS-CoV-2 spike trimer (SARS-CoV-2, wild type (D614), stabilised)
T1 construct: also called wild-type trimer
Test: BLI; Octet Red384; […]; analyte ([…]; HBS-EP+ buffer; 1:1 binding model
Conditions: one partner purified

B1: tixagevimab (AZD8895), full-length IgG (antibody, V domains shown)
VH: QMQLVQSGPEVKKPGTSVKVSCKASGFTFMSSAVQWVRQARGQRLEWIGWIVIGSGNTNYAQKFQERVTITRDMSTSTAYMELSSLRSEDTAVYYCAAPYCSSISCNDGFDIWGQGTMVTVSS
VL: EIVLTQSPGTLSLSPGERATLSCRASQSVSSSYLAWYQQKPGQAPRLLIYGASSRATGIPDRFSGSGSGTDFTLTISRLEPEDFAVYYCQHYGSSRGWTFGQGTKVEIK
notes: also called component of AZD7442 (Evusheld); copies: 2 + 2
B1 was tested. Which Kd did it give?
Its Kd is 0.491 nM.
